The record followed here is paper doi:10.1101/789909 (bioRxiv, 2019).

One test addresses purified DmsD (E. coli) (UniProt P69853). Put plainly: SPR.
For test [1], the target named is T1, EcTatBC with 6xHis tag (complex of TatB and TatC), purified (E. coli, UniProt P69425 1-171; P69423 1-258).
T1 sequence 1: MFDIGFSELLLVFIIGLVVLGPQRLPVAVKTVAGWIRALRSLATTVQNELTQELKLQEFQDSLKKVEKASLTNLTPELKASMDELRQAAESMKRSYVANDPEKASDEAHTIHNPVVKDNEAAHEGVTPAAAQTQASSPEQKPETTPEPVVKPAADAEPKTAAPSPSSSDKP
T1 sequence 2: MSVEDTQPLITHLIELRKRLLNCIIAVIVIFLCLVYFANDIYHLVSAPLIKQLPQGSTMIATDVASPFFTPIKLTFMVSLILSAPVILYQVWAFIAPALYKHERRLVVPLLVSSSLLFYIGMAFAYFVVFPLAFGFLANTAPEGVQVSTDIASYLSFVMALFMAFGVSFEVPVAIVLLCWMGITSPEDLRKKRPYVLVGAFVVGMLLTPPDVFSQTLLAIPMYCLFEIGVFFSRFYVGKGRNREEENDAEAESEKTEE
Put plainly: SPR. (In general: Surface plasmon resonance follows binding to a sensor surface in real time, without labels.)

In general, Kd refers to the concentration at which binding is half-saturated. Low readings indicate a tighter complex, high ones a looser complex. In turn, “ssDmsA_45 (printed ssDmsD_45), truncated form of ssDmsA-GFP (domain or fragment)” gave a Kd with purified DmsD (E. coli) of 55.9 nM.

B1: purified DmsD (natural protein)
chain: MTHFSQQDNFSVAARVLGALFYYAPESAEAAPLVAVLTSDGWETQWPLPEASLAPLVTAFQTQCEETHAQAWQRLFVGPWALPSPPWGSVWLDRESVLFGDSTLALRQWMREKGIQFEMKQNEPEDHFGSLLLMAAWLAENGRQTECEELLAWHLFPWSTRFLDVFIEKAEHPFYRALGELARLTLAQWQSQLLIPVAVKPLFR
B1: the binding result in test [1] was “binds”.
